Experimental data reported in the nanobody polyreactivity screen of Harvey et al. (2022).

Assay: yeast display, Sf9 membrane polyspecificity reagent, FACS + sequencing; frameworks hold sequencing errors
Method in brief: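 Galactose-induced (36–48 hours) yeast carrying a synthetic nanobody display library were exposed to 10% biotinylated, detergent-solubilized Sf9 membrane reagent at 4 °C for 1 hour. FACS followed streptavidin microbead enrichment, using low and high (top ~1%) gates for expression (anti-HA) and reagent binding (streptavidin). Colony PCR, MiSeq 2 × 250 sequencing and CDR-length filtering followed. Labels for polyreactivity reflect the gate of origin.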

Sequence	polyreactivity (PSR sort gate)
QVQLVESGGGLVQAGGSLRLSCSASGIIFDSYVMGWYRQAPGKERELVAAISFRGGSTYYADSVKGRFTISRDNAKNTVYLQMNSLKPEDTAVYYCAAEGRGYTEYYWGQGTQVTVSS	high polyreactivity
QVQLVESGGGLVQAGGSLRLSCAGSGFTFKWYAMGWYRQAPGKERELVAGISRGGTTNYADSVKGRFTISRDNAKNTVYLQLNSLKPEDTAVYYCAKTSYVSYRGLTYYYWGQGTQVTVSS	high polyreactivity
QVQLVESGGGLVQAGGSLRLSCAASGLTFRRYGMGWYRQAPGKERELVASISSRGGNTYYADSVKGRFTISRDNAKNTVYLQMNSLKPEDTAVYYCATGVSTRYEYWGQGTQVTVSS	high polyreactivity
QVQLLESVGGLVQAGGSLRLSSMASGSILGDRMSWYRHAPGKEHELVATIYDGGITYYADSMKGRFTISRDNAKNTVYLQMNSLRPEDSAVYYCGASFEGYRYHVYCGQGTQVTVSS	low polyreactivity
QVQLVESGGGLVQAGGSLRLSCAASGFPFSRYARGWSRQAPGTERELVATITARGGTTYYADSVKGRFTISRDNAKNTVYLQMNSLKPEDTAVYYCNAKAYYRPYYDYDYGGQGTQVTVSS	high polyreactivity
QVQLVESGGGLVQAGGSLRLSCAASGLTFYRNVMGWYRQAPGKERELVAAISGNGGSTYYADSVKGRFTISRDNAKNTVYLQMNSLKPEDTAVYYCATRAYDTGYGYWGQGTQVTVSS	high polyreactivity
QVQLVESGVGLVQAGGSLRLICAASGRTFAYYAMGWYRQAPGKERELVAAISSGGRTNYADSVKGRFTISRDNAKNTVYLQMNSLKPEDTAVYYCARKASYQIYNGQYGGFGYGYWGQGTQVTVSS	high polyreactivity
QVQLVESGGGLVQAGGSLRLSCAASGRTLVLNMGWYRQAPGKQRELVATINSGGSTYYADSVKGRFTISRANAKNTVYLQMNSLKPEDSAVYYCAVLSSDGKFDYWGQGSQVTVSS	low polyreactivity
QVQLVESGGGLVQAGGSLRLSCAASGSIFTRYAMGWYRQEPGKERELVAAITTRGSSTYYADSVKGRFTISRDYAKNTVYLQMNSLKPEDTAVYYCATVVRLYRGRYRYDYWGQGTQVTVSS	high polyreactivity
QVQLVESGGGLDQAGGSLRLSCAASGRTFYTYVMGWYRQAPGKEREFLAAITYSGGSTYYADSVKGRFTISRDNAKNTVYLQMNSLKTEDSAVYYCNAEWTYSEWYGQYLEFDYWGQGTQVTVSS	high polyreactivity
QVQHVESGGRLVQAVGSLRLSCAASGFTFTRHAMGWYRQAPGKERDLVSRISSRGGSTYYADSVKGRFTISRDNAKNTVYLQMNSLKPEDTAVFYCAAPVRKSSYTRYDSWGQGTQVTVSS	high polyreactivity
QVQLVESGGGLVQAGGSHRLSCAASGRIFRGYPMGWYRPAPGKERELGAAITSRGGSTYADSVKGRFTISRDNAKNTVYLQMNSLKPEDSAVYYCNAGYRAYSAKLVFRGYPRYDYWGQGTQVTVSS	low polyreactivity
QVQLVESGGGLVQAGGSLRLSCAPSGSILRYYAMGWYRQAPGKEREFVAAISWSGTSTYYADSVKGRFTISRDIAKNTVYLQMNSLKPEDTAVYYCAARTYYVPYYYWGQGTQVTVSS	high polyreactivity
QVQLQESGGGLVQAGGSLRLTCAASGSIFDGFNMGWYRQAPGKDREFVDAISYGASTYYADSVKGRFTVSRDNAINSVYLQMNSLKPEDTALYYWAVYDELYHVLVYWGRGTQVTVSS	low polyreactivity
QVKLVESGGGLVQAGGSLRLSCAASGRTFKYYAMGWYRQAPGKERELVAAISWSGGSTYYADSVMGRFTISRDNAKNTVYLQMNSLKPEDTAVYYCAAVRNYHGTWYDYWGQGTQVTVSS	high polyreactivity
QVQLVESGGGFVQAGGSLRLSCAASGSTFFTNAKGWYRQAPGKERELVAASRWRGGTYYADSVKGRFTISRDNAKKTVYLQMNSLKPEDTPVYDCATSVKTSFDYWRQGTQVTVSS	low polyreactivity
QDQLVESGGRLVQAGGSLRLSCAASGRTFYYYAMGWYRQAPGKERELVARIRSGGSTNYADSVKGRFTISRDNAKNSVYLQMNSLKPEDTAVYYCNALGAKGYVKGFDYWGQGTQVTVSS	low polyreactivity
QVQLVESGGGIVQAGGSLRLSCAASGSILGYYVMGWYRQAPGIESELVAAISWSSGSTYYADSVKGRFTISRDNAKNTVYLQMNSLIPEDTAVYFCAAPIGDVYVGKGYDSWGQGTQVTVSS	low polyreactivity
QFQLVESGGGLVQAGGSLRLSCAASASTYYYYVMGWSIQAPVKEREVVAAITRSTGSTYYADSVKGRFTISRDNAKNTVYLNKNSLKPEETSVYYCAAEGPKWYYSGAFDYWGQGSQVTVSS	low polyreactivity
QVQHVESGGGLVQAGGSLRLSCAASVLIFYIYAMGWYRQAPGKERELVAAITTGGRTNYADSVKGRFTISRDNAKNTVYLQMKSLKPEDTEVYYCAKDFPIWISHGPDTDNDYGGQGTQVTVSS	low polyreactivity
QVQLVESGAGLVQAGGSLRLSCAASGPILRTYAKGWYRQAPGKERELVAAISRSGGSSYYADSVKGRFTLSRDNAKNTVYLLMNSLKPEDTAVYYCNKAYGGRGYKYEYWGQGSQVTVSS	high polyreactivity
QVQLVESGGGLVQAGGSLRLSCAASGSIFRLYVMGWYRQAPGKERELVAAITLSGGSTYYADSVKGRFTISRDNAENTVYLQMNSLKPEDTAVYYCNRVTLYDITFDYWGQGTQVTVSS	low polyreactivity

Sequence	polyreactivity (PSR sort gate)
QVQLVESGGGLVQAGGSLRLSCAASGSIFYFYTMGWYRQAPGKEREFVAAINGIGGSTYYADSVKGRFTISRDNAKNTVYLQMNSLKPEDTAVYYCAADAPWFKRNARKYNYWGQGTQVTVSS	low polyreactivity
QVQLVESGGGLVQAGGSLRLSCAASGFTFGRYAMGWYRQAPGKERELVASISRSGGSTNYADSVKGRFTISRDNAKNTVYLQMNSLKPEDTAVYYCAAVKGRRYDYWGQGTQVTVSS	high polyreactivity
QVQLVESGGGLVQAGGSLRLICAASGITFRRYTMGWYREAPGKERELVATISLSDGNTYYADSVKGRFTISRDNAKYTLYLQMNSLKPEDTAVYYCNARHTWHQTYDYWGQGTIVTVSS	low polyreactivity
QVQLVESGGRLVQAGGSLRLSCAASGFTFVEYAMGWYRQAPGKERELVAANSRSGSTYYADSVKGRFTISRDNSKNTVYLQMNSLKPEDTAVYYCATLVYRKQYSRYDYWGQGTQVTVSS	high polyreactivity
QVQLVESGGGLVQAGGSLRLTCAASGSIFSYYAMGWYRQAPGKERELVAAITSGGGTYYADSVKGRFTISRDNAKNTVFLQMNSLKPEDTAVYYCAKDGYPDQDVQVFNDSDYWGQGTQVTVSS	low polyreactivity
QVQLVESGGGLVQAGGSLRLSCAASGNAMGWYRPAPGKERELVAAITRRGGSTYYADSVKGRFTISRDNAKNTVYLQMNSLKPEDSAVYYCAADNPSYNLWYGYWGLGTQVTVSS	low polyreactivity
QVQLVESGGGLVQAGGSLRLSCAASGSILPRYGMGWYSQAPGKEREFVAAISWRGGRTYYADSVKGRFTISRDTAKHTVYVQMNSLKPEDTAVYYCAARAHIYTRLDYWGQGTEVTVSS	high polyreactivity
QVQLVESGGGLVQAGGSLRLSCAASGSIFSFNAKGWYRQAPGKERELVAAITTSGGSTYYADSVKGRFTISRDNAKNTVYLQMNSLKPEDTAVYYCAAVRPDNSLYEPMDYWGQGTQVTVSS	low polyreactivity
QVQLVESGGGLVQAGGSLRLSCAASGSTFLNYAMGWYRQAPGKERELVAAISFSGGRTYYADSVKGRFTISRDIAKNTVYLQMNSLKPEDTAVYYCGAGGWRGHYYCGQGTQVTVSS	high polyreactivity
QVQLVESGGCLVQAGGSLRLSCAASGRIFIRYTMGWYRQAPGKERELVAAISKSGGRTYYADSVKGRFTISRDNAKNTDYLQMNSLKPEYTAVYDCNKDTDSQYSWGQGTQVTVSS	high polyreactivity
QVQLVESGGGLVQAGGSLRLSCAASGFIFYRYAMGWYRQAPGKERELVAAISWGGGSTTYYADSVKGRFTISRDNAKNTVYLQMNRLKPEDTAVYYCAAYIGKGYGSEYYYWGQGTQVTVSS	low polyreactivity
QVQHVASGGGLVQAGGSLRLSCAASGNIFRYYTMGWYRQAPGKERELVATISYADSVKGRFTISRDNAKNTVYLQMNSLKPEDTAVYYWNAVFAPWDKQDYPYDYDYWGQGTQVTVSS	low polyreactivity
QVQLVESGGGLVQAGGSLSLSCAASGRTFGYYTMGWYRQAPGKERELVAAINWGGSRTYYADSVKGRFTISRDNAKNTVYLEMNSLKPEDTAVYYCAADVYRQWADDSWGLGTQVTVSS	high polyreactivity
QVQLVESGGGLFQAGGSLRLSCAASGIIFPRYMGWYRQAPGKERELVAAIRWSSDDTNYADSVKGRFTISRDNAKNTVYLQMNSLKPEDTAVYYCAADSYYDRTIQFEFSARTYEYWGQGTQVTVSS	low polyreactivity
QVQLVESGGGLVQAGGSLRLSCAASGFTFYTYAMGWYRHAPGKERELVAAITSSGGSTYYADSVKGRFTISRDNAKNSVYLQMNSLKPEDTAVYYCKAVSYYLGDDYWGQGTQVNVSS	high polyreactivity
QVQLVESGGGLVQAGGSLRISCAASGYTVKSYAMGWYRQAPGKERELVAAISNGGNTYYADSVKGRFTISRDNAKNTVYLQMNSLKPEDTAVYYCAARYGYFYSRYDHWGQGTQVTVSS	low polyreactivity
QVQLVESGGGLVQAGGSLRLISAASGRTFWTNAMGWYRQAPGKEREFVAAISWRGASTFYADSVKGRFTISRDNAKNTVYLQMNSLKPEDTAVYYCAAQSRTRSFYGKYDSWGQGTQVTVSS	low polyreactivity
QAQLQESGGSLLQAGGGLRLSCAASGYISVGSVMGWYRQAPSKERELVASIDQGANTNYADSVKGRYTISRDNAKNNVYLQMNSLKPEDSAVYYCATETTYILNYWGQGTQVTVSS	low polyreactivity
QVQLVESGGGLVQAGGSLRLSCAASGSIYWINTSMGWYIQAPGKERELVAAITWSSGGTYYADSVKGRFTISRDNAKKTVYLQMNSLKPEDTAVYYCAKVRFFWYRMGYWGQGTQVTVSS	high polyreactivity
QDQLVDSGGGLVQAGGSLSLSCAASGISFYGNAMAWYRPAPGKERELVAAITSGGSTNYADSVKGRFTISRDNAKNTVYLQLYSLKPEDTAVYYCAVSYVSTLRRSRYDYWGQGTQVTVSS	low polyreactivity
QVQRVESGGGLVQAGGSLRLSCAASGFTLDPYAMGWYRQAPGKEREFVAAIRLSGSSTYYADSVKGRFTISRDNAKNTVYLQMNSLKPEDTAVYYCAADGISHWLYRYDYWGQGTQVTVSS	low polyreactivity
